The values below come from patent US20240271119A1 (BROAD INSTITUTE, published 2024).

In data set [1] the target is YibK-SH2 (periplasmic, from SS-YibK-SH2). The data set is described as follows: cell-based or functional assay.
For data set [2], the target named is YibK(V139R)-SH2 (periplasmic, from SS-YibK(V139R)-SH2). The data set is described as follows: cell-based or functional assay.
Data set [3] deals with GCN4(7P14P)-SH2 (periplasmic, from SSPelB-GCN4(7P14P)-SH2, pMM95a) (yeast). Nature of the data set: cell-based or functional assay.
Data set [4] has as its target CadC1-155-Leu(16)TM-GCN4(7P14P) (pMM114a) (E. coli; yeast). The data set is described as follows: cell-based or functional assay.
Data set [5] deals with the molecule itself. Nature of the data set: Western blot of whole-cell lysate with and without DTT.

“YibK-SH2 (periplasmic, from SS-YibK-SH2)”: in data set [1], the PcadBA transcriptional activation (LuxAB luminescence) worked out at 66 fold and the overnight phage propagation was > 1000 fold.
Take “YibK(V139R)-SH2 (periplasmic, from SS-YibK(V139R)-SH2)”: the PcadBA-directed LuxAB expression in data set [2] was > 8 fold loss.

B1: Ω-graft-SH2 (periplasmic, from SS-Ω-graft-SH2) (scFv)
scFv: RDIVMTQSPSSLSASVGDRVTITCRSSTGAVTTSNYASWVQEKPGKLFKGLIGGTNNRAPGVPSRFSGSLIGDKATLTISSLQPEDFATYFCALWYSNHWVFGQGTKVELKRGGGGSGGGGSGGGGSSGGGSEVKLLESGGGLVQPGGSLKLSCAVSGFSLTDYGVNWVRQAPGRGLEWIGVIWGDGITDYNSALKDRFIISKDDCENTVYLQMSKVRSDDTALYYCVTGLFDYWGQGTLVTVSSGGSGGSGGSGGSGGSSLEKHSWYHGPVSRNAAEYLLSSGINGSFLVRESESSPGQRSISLRYEGRVYHYRINTASDGKLYVSSESRFNTLAELVHHHSTVADGLITTLHYPAPKR
On to B1, for which, in data set [3], the PcadBA-driven LuxAB expression turned out to be 30 fold and the phage enrichment in mock selection (PACE 12 hours or two PANCE passages) is > 1000 fold.

B2: Ω-graft(L231F F232A)-SH2 (periplasmic, from SS-Ω-graft(L231F F232A)-SH2) (scFv)
scFv: RDIVMTQSPSSLSASVGDRVTITCRSSTGAVTTSNYASWVQEKPGKLFKGLIGGTNNRAPGVPSRFSGSLIGDKATLTISSLQPEDFATYFCALWYSNHWVFGQGTKVELKRGGGGSGGGGSGGGGSSGGGSEVKLLESGGGLVQPGGSLKLSCAVSGFSLTDYGVNWVRQAPGRGLEWIGVIWGDGITDYNSALKDRFIISKDDCENTVYLQMSKVRSDDTALYYCVTGFADYWGQGTLVTVSSGGSGGSGGSGGSGGSSLEKHSWYHGPVSRNAAEYLLSSGINGSFLVRESESSPGQRSISLRYEGRVYHYRINTASDGKLYVSSESRFNTLAELVHHHSTVADGLITTLHYPAPKR
On to B2, for which, in data set [3], the PcadBA transcriptional activation (LuxAB) (fold decrease) turned out to be 55.

B3: Ω-graft scFv variant 37o5c2.1 (R1C F232A) (scFv)
scFv: CDIVMTQSPSSLSASVGDRVTITCRSSTGAVTTSNYASWVQEKPGKLFKGLIGGTNNRAPGVPSRFSGSLIGDKATLTISSLQPEDFATYFCALWYSNHWVFGQGTKVELKRGGGGSGGGGSGGGGSSGGGSEVKLLESGGGLVQPGGSLKLSCAVSGFSLTDYGVNWVRQAPGRGLEWIGVIWGDGITDYNSALKDRFIISKDDCENTVYLQMSKVRSDDTALYYCVTGLADYWGQGTLVTVSS
Consider B3, for which the overnight phage enrichment in data set [4] was 1000 fold.

B4: YibK(V139R R146C)-SH2 (periplasmic, pMM103g) (other)
chain: MLDIVLYEPEIPQNTGNIIRLCANTGFRLHLIEPLGFTWDDKRLRRSGLDYHEFAEIKRHKTFEAFLESEKPKRLFALTTKGCPAHSQVKFKLGDYLMFGPETRGIPMSILNEMPMEQKIRIPMTANSRSMNLSNSVARTVYEAWCQLGYKGAVNLPEVKGGSGGSGGSGGSGGSSLEKHSWYHGPVSRNAAEYLLSSGINGSFLVRESESSPGQRSISLRYEGRVYHYRINTASDGKLYVSSESRFNTLAELVHHHSTVADGLITTLHYPAPKR
In the case of B4, in data set [5], the binding result was “binds”.
